Each block holds one molecule with its values, some of them ahead of it. Ends that are not written are not given here. Peptide text beside a SMILES is read from it.
How the values were obtained:
ATIC homodimer = target: T1, ATIC homodimer (Gallus gallus, UniProt P31335); test: ATIC RTHS ranking by spotting serial dilutions on selective media; assay type: cell-based; conditions: cyclic peptides in order of biological activity (1 = most active)
T1 construct: expressed in transfected cells; host or cells: E. coli RTHS strain with the ATIC fusion integrated on the chromosome
T1 sequence (P31335 1-593): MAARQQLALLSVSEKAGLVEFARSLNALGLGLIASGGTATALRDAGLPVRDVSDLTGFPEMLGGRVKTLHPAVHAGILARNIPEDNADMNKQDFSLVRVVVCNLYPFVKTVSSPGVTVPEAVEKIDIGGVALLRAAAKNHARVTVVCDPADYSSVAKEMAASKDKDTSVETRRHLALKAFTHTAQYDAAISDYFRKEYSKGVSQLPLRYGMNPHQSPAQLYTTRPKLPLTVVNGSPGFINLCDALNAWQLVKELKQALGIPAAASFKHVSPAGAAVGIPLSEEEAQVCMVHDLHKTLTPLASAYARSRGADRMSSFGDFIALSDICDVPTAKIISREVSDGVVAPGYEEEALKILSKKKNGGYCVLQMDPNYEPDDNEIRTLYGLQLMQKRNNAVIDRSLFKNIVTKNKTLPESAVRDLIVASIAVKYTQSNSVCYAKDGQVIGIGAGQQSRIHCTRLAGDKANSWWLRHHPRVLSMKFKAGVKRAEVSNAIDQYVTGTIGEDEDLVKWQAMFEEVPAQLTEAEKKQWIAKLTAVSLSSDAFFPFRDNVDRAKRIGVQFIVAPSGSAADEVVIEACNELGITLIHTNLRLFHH
Description: ATIC was cloned as a fusion with the bacteriophage 434 repressor DNA binding domain (into pTHCP16, FIG. 1B) such that expression of the repressor-ATIC fusion placed under control of an isopropyl β-D-thiogalactoside (IPTG) inducible promoter. […] In order to improve selection conditions, a new RTHS strain was constructed by integrating the ATIC fusion onto the chromosome. The level of IPTG giving optimal repression was determined to be 50 μM by β-galactosidase assays.
The first SICLOPPS library transformed into the selection strain encoded a hexapeptide with five random residues and a cysteine nucleophile. Approximately 10^7 transformants were plated onto histidine-free minimal media supplemented with arabinose, (inducer for SICLOPPS) 3-amino-1,2,4-triazole (3-AT, competitive inhibitor of HIS3 product) and kanamycin at a density of 10^6 per plate (100×15 mm). The plates were incubated until colonies were readily visible (approximately one in 10^5). A second library encoding an octapeptide with five random residues and an invariable SGW motif was also tested (not shown). Around 200 colonies were picked and screened for arabinose dependent growth advantage and IPTG dependent inhibition of growth to eliminate false positives. The expected phenotype was further confirmed by isolating and retransforming the selected SICLOPPS plasmids into the selection strain. The 14 remaining cyclic peptides were then ranked for activity by spotting serial dilutions of the corresponding cells onto selective media, allowing the conferred growth advantage to be compared at each dilution level.
SICLOPPS libraries were transformed into E. coli strains containing integrated reporter and repressor constructs. Transformants were washed with minimal media A and plated on minimal media A supplemented with 13 μM L-(+)-arabinose, 2.5 mM 3-amino-1,2,4-triazole, 25 μM kanamycin and 50 μM IPTG. After incubation at 37° C. for 3-4 days, surviving colonies were restreaked onto the same media with and without arabinose. Plasmids from selected strains whose growth depended on the presence of arabinose were retransformed into the original selection strain and checked for phenotype retention. The variable insert regions on SICLOPPS plasmids were PCR-amplified, and their DNA sequence determined.

avian ATIC (AICAR Tfase) = target: T2, avian ATIC (AICAR Tfase) (Gallus gallus, UniProt P31335); test: AICAR Tfase assay
T2 sequence (P31335 1-593): T1 sequence (P31335 1-593)
Description: All assays were performed using a Varian Cary 100 Spectrometer. All reaction mixtures were 500 μl in volume and carried out in 1 cm pathlength quartz cuvettes at 25° C. The enzyme used in all of the inhibition studies was avian ATIC, fused to a N-terminal 6× histidine tag to facilitate purification. […] The peptides were dissolved in DMSO to a final concentration of 2.5 mM.
84 nM of ATIC, 50 μM of 10-f-THF and various quantities of inhibitor were mixed in the assay buffer (32.5 mM Tris-HCl, 25 mM KCl, pH 7.4). The mixture was incubated at 25° C. for 2 min before initiating the reaction by addition of 20 μM AICAR. The reaction was monitored by measuring the increase in absorbance due to formation of tetrahydrofolate at 298 nm.
The peptides were assumed to be competing with f-10-THF, which binds to ATIC and stabilizes its dimerization.

ribonucleotide reductase = target: T3, ribonucleotide reductase (Mus musculus, UniProt P07742+P11157); test: RTHS β-galactosidase (lacZ) assay, ribonucleotide reductase fusion in strain SNS126; assay type: cell-based, murine; conditions: for Effect on the lacZ reporter upon arabinose induction: arabinose induction of peptide expression; for Effect on the lacZ reporter upon arabinose induction / lacZ repression relief: 100 μM IPTG; for lacZ repression relief: background level of peptide expression
T3 construct: expressed in transfected cells; host or cells: E. coli strain SNS126 (integrated via pAH68)
T3 sequence (P07742 1-792): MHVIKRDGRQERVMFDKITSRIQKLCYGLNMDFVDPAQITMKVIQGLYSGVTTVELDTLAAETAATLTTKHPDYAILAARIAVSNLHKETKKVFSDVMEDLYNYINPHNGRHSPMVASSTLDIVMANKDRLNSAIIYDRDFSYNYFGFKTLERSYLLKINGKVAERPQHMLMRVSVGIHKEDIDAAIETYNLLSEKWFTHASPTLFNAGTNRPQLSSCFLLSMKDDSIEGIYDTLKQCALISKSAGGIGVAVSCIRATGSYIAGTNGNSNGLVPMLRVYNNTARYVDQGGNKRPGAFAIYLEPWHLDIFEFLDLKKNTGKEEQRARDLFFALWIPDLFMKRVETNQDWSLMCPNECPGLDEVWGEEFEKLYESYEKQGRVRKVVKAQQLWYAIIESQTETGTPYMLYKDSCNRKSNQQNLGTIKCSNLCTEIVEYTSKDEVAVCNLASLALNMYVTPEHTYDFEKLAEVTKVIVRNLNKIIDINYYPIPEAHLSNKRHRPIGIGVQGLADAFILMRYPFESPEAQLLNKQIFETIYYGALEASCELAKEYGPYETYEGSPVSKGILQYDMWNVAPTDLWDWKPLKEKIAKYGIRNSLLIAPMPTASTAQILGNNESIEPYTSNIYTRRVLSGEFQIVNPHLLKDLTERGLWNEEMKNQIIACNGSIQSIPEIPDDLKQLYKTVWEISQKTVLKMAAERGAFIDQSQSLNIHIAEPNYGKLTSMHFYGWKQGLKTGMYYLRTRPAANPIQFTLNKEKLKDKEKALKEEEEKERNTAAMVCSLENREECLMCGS
T3 sequence (P11157 1-390): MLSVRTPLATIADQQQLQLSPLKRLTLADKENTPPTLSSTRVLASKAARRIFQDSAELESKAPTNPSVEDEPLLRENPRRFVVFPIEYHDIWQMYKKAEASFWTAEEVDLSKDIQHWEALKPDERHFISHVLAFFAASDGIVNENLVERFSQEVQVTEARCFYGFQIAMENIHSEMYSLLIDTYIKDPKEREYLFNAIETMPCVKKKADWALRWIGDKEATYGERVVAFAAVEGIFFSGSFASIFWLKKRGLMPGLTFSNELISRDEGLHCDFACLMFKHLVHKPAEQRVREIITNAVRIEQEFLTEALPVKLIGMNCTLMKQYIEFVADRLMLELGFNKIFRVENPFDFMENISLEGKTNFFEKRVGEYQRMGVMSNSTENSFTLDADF
Source text: FIG. 4 has two graphs (A and B) of β-galactosidase assays showing the effect of linear peptide inhibitors on the oligomeric state of HIV-1 protease and ribonucleotide reductase.
Positive (unrepressed strain) and negative (SICLOPPS control plasmid) controls are provided as reference points. […] FIG. 7C is a graph of competition ELISA results that compare the binding affinity of the four linear peptides with P8 control. FIG. 7D illustrates an exemplary solid phase synthesis of cyclic peptides. First, an activated disulfide resin is prepared through the protection of the thiol group of 3-mercaptopropionic acid, followed by coupling to an amino-PEGA resin. Next, a linear peptide is attached via a cysteine residue and cyclized with 1-ethyl-3-(3′-dimethylaminopropyl)carbodiimide (EDC) and 1-hydroxy-7-azabenzotriazole (HOAt) in DMF. Finally, reductive cleavage with tris-2-carboxyethylphosphine (TCEP) releases the cyclized peptide.
pTHCP30. […] ribonucleotide reductase subunit R1 was PCR amplified from a Bacuolovirus expression plasmid [Caras et al. (1985) J. Biol. Chem. 260:7015-7022] and cloned into SalI and SacI sites on pTHCP14, and subunit R2 was PCR amplified from pET3a-R2 and cloned onto pTHCP14-R1 plasmid at XhoI and KpnI sites [Mann et al. (1991) Biochemistry 30:1939-1947].
Overlapping oligonucleotides encoding […] (methionine plus eight R2 subunit C-terminal residues) (SEQ ID:15) were cloned into NcoI and XbaI sites on arabinose expression plasmid pAR [Perez-Perez et al. (1995) Gene 158:141-142].
Towards this goal, both enzyme complexes were probed with known linear peptidic inhibitors. These peptides are a C-terminal hexapeptide (FIG. 4A, pHIV16) for HIV protease that inhibits the essential β-sheet interactions [Schramm al. (1996) Antiviral Res. 30:155-170], and a heptapeptide for ribonucleotide reductase (pTHCP35, FIG. 4B) that competes with binding between subunits mR1 and mR2 [Yang et al. (1990) FEBS Lett. 272:61-64].
To address non-specific effects of selectants on host growth rates, three of the selective peptides (RR93, RR127, RR130) and the less discriminating RR133 were subjected to quantitative expression studies using the lacZ reporter of the RTHS. […] These studies necessitated in vitro analysis to decipher the inhibition mechanism of these four selectants.

[1] = target: T4, ribonucleotide reductase large subunit (mR1) (Mus musculus, UniProt P07742); test: Immobilized peptide binding/competition ELISA with mR1; set-up: species or system murine; conditions: P8 immobilized on maleimide plates
T4 construct: made in house; host or cells: E. coli BL21(λDE3) Rosetta, pET28a-MR1
T4 sequence (P07742 1-792): T3 sequence (P07742 1-792)
Description: (§1) FIG. 8B provides the results of an immobilized P8 ELISA.
(§2) Two variations of solid phase binding assays were used for analyzing the binding of peptide inhibitors to ribonucleotide reductase subunits: i) protein competition ELISA where peptides were competing with mR1 for binding to immobilized mR2, ii) binding and competition ELISA with covalently immobilized ligands. In general, the solid phase assays were performed in microtiter plates (MaxiSorp, Nunc) or strip units (Reacti-Bind™ Maleimide Activated Clear Strip Plates, Pierce) involving continuous agitation in Junior Orbit Shaker (Lab-line Instruments) at medium speed during all of the incubation steps. Sample volumes were 100 μL, unless specified otherwise. Following coating, blocking step was conducted by incubating pre-loaded wells with 5% bovine serum albumin in PBS for 1 h at room temperature. Wash procedures between any two successive incubations involved three washes with 200 μL of 0.5% Tween-20 in PBS (PBST), with the second wash involving a 5 min incubation. Detection of His-tagged proteins was performed with Ni·NTA-HRP conjugate (Qiagen) according to the manufacturer instructions.
(§3) Peptides (200 nmol per well) in 10% DMF/50 mM Tris·HCl (pH 7.5) with 1 mM TCEP were reacted for 2 h at room temperature with maleimide-derivatized polystyrene wells. The unreacted sites were blocked by incubating wells with 5 μM cysteine in 50 mM Tris·HCl (pH 7.5) for 30 min. Following washing and blocking steps, the wells were incubated with His-tagged mR1 or mR2 in the presence or absence of inhibitors. The retained protein was detected via Ni·NTA-HRP conjugate.
(§4) To determine the mechanism of action of the four identified sequences an alternative assay format was devised (FIG. 8A), where a peptide with a residual activity in its immobilized form can serve as a specific ligand for receptor capture in both binding and competition ELISA. The success of such an assay relies on both efficient peptide immobilization strategy and sufficient level of affinity, uncompromised by this display strategy. The peptide immobilization becomes feasible through implementation of a cysteine, a nucleophile used in splicing, as a universal chemoselective handle allowing covalent attachment strategy through a suitable electrophile. Chemoselective attachment of such peptides on appropriately derivatized surfaces should both display the small molecules for detection with a suitable protein receptor and allow binding site competition analysis, not unlike in a traditional immunosorbent format.

[2] = target: T5, ribonucleotide reductase small subunit (mR2) (Mus musculus, UniProt P11157); test: Immobilized c-RR130 binding/competition ELISA with mR2; set-up: species or system murine; conditions: data not shown
T5 construct: made in house; host or cells: E. coli BL21(λDE3), pET28a-MR2
T5 sequence (P11157 1-390): T3 sequence (P11157 1-390)
Description: as §1, §2, §3, §4

- Activity Rank (ATIC homodimer): 1
- Ki (avian ATIC (AICAR Tfase)): 59 ± 6.8 µM
Molecule: CSCC[C@@H]1NC(=O)[C@H](Cc2c[nH]c3ccccc23)NC(=O)CNC(=O)[C@H](CO)NC(=O)[C@H](C(C)C)NC(=O)[C@H](CC(N)=O)NC(=O)[C@H](CC(C)C)NC(=O)[C@H](Cc2ccccc2)NC1=O [c-151, M F L N V SGW] (cyclo(WMFLNVSG))

- Effect on the lacZ reporter upon arabinose induction (ribonucleotide reductase): further enhanced
- lacZ repression relief (ribonucleotide reductase): observable repression relief
- Disruption of / competition with immobilized P8·mR1 complex [1]: none
- Competition with the c-RR130·mR2 complex [2]: competed
Molecule: GVRFF (cyclic, SICLOPPS-expressed; Ribonucleotide reductase inhibitor peptide) [RR127]

- Effect on the lacZ reporter upon arabinose induction (ribonucleotide reductase): further enhanced
- lacZ repression relief (ribonucleotide reductase): observable repression relief
- Disruption of / competition with immobilized P8·mR1 complex [1]: none
- Competition with the c-RR130·mR2 complex [2]: competed
Molecule: HRYVF (cyclic, SICLOPPS-expressed; Ribonucleotide reductase inhibitor peptide) [RR133]

- Activity Rank (ATIC homodimer): 3
Molecule: M L L I V C (MLLIVC) [c-25]

- Repression of the lacZ reporter (ribonucleotide reductase; peptide co-expressed with ribonucleotide reductase fusion): relieved repression
Molecule: MSFTLDADF [pTHCP35, reference compound]

- Activity Rank (ATIC homodimer): 3
Molecule: P V L L L C (PVLLLC) [c-26]

- Activity Rank (ATIC homodimer): 2
Molecule: R F F I C C (RFFICC; also: cyclic peptide, ring type not given here) [c-4]

- Activity Rank (ATIC homodimer): 2
Molecule: R I L Q L C (RILQLC) [c-8]

- Activity Rank (ATIC homodimer): 3
Molecule: R I L V L C (RILVLC) [c-5]

- Ki (avian ATIC (AICAR Tfase)): 142 ± 22.5 µM
Molecule: RYFNVC [l-1a, RYFNVC]

- Effect on the lacZ reporter upon arabinose induction (ribonucleotide reductase): arabinose-dependent repression
- lacZ repression relief (ribonucleotide reductase): observable repression relief
- Disruption of / competition with immobilized P8·mR1 complex [1]: none
- Competition with the c-RR130·mR2 complex [2]: competed
Molecule: RYYNV (cyclo(RYYNV); not fully specified) [RR130]

- Activity Rank (ATIC homodimer): 3
Molecule: S M M V L C (SMMVLC) [c-15]

- Activity Rank (ATIC homodimer): 3
Molecule: T V L M F C (TVLMFC) [c-6]

- Ki (avian ATIC (AICAR Tfase)): 173 ± 28.4 µM
Molecule: WMFLNVSG [l-151]

- Effect on the lacZ reporter upon arabinose induction (ribonucleotide reductase): further enhanced
- lacZ repression relief (ribonucleotide reductase): observable repression relief
Molecule: YTWSY (cyclo(YTWSY); not fully specified) [RR93]

Source: US20060078875A1, “Genetic selection of small molecule modulators of protein-protein interactions” (The Penn State Research Foundation, priority 2004, published 2006)
